# Test results from PMC6479699, “Structural and Functional Characterization of the Human Thymidylate Synthase (hTS) Interface Variant R175C, New Perspectives for the Development of hTS Inhibitors” (Molecules, 2019).
# Target: the molecule itself
# Assay: SEC; HiLoad 16/600 Superdex 75pg column, last purification step; sample dialysed in buffer A (50 mM Tris pH 6.9, 300 mM KCl) beforehand
protein,measurement,value
"His6-tag human thymidylate synthase variant R175C (enzyme, UniProt P04818 1-313, looked up, Cys195 oxidized to S-oxy-cysteine (CSX195) in all subunits of the crystal structure, human thymidylate synthase (hTS, EC 2.1.1.45); Arg175 replaced by cysteine; In the crystal the chains were traced apart from the first 22-23 N-terminal residues and the C-terminal valine; also called HT-hTS R175C; hTS R175C; not shown: His6, N-terminal, kept) MPVAGSELPRRPLPPAAQERDAEPRPPHGELQYLGQIQHILRCGVRKDDRTGTGTLSVFGMQARYSLRDEFPLLTTKRVFWKGVLEELLWFIKGSTNAKELSSKGVKIWDANGSRDFLDSLGFSTREEGDLGPVYGFQWRHFGAEYRDMESDYSGQGVDQLQRVIDTIKTNPDDCRIIMCAWNPRDLPLMALPPCHALCQFYVVNSELSCQLYQRSGDMGLGVPFNIASYALLTYMIAHITGLKPGDFIHTLGDAHIYLNHIEPLKIQLQREPRPFPKLRILRKVEKIDDFKAEDFQIEGYNPHPTIKMEMAV",stoichiometry N,2
